This note sets out measurements from article PMC9537309.

The chains are these.
B1: FLAG-tagged DND1 wild-type (Dead End, full-length human protein 1-353) [human] / RNA helicase MOV10 [human (endogenous in HEK293T)] (parent)
chain 1: MQSKRDCELWCERVNPENKAALEAWVRETGIRLVQVNGQRKYGGPPPGWVGSPPPAGSEVFIGRLPQDVYEHQLIPLFQRVGRLYEFRLMMTFSGLNRGFAYARYSSRRGAQAAIATLHNHPLRPSCPLLVCRSTEKCELSVDGLPPNLTRSALLLALQPLGPGLQEARLLPSPGPAPGQIALLKFSSHRAAAMAKKALVEGQSHLCGEQVAVEWLKPDLKQRLRQQLVGPFLRSPQPEGSQLALARDKLGFQGARATLQLLCQRMKLGSPVFLTKCLGIGPAGWHRFWYQVVIPGHPVPFSGLIWVVLTLDGRDGHEVAKDAVSVRLLQALSESGANLLWSAGAEAGTMVKQ
chain 2: MPSKFSCRQLREAGQCFESFLVVRGLDMETDRERLRTIYNRDFKISFGTPAPGFSSMLYGMKIANLAYVTKTRVRFFRLDRWADVRFPEKRRMKLGSDISKHHKSLLAKIFYDRAEYLHGKHGVDVEVQGPHEARDGQLLIRLDLNRKEVLTLRLRNGGTQSVTLTHLFPLCRTPQFAFYNEDQELPCPLGPGECYELHVHCKTSFVGYFPATVLWELLGPGESGSEGAGTFYIARFLAAVAHSPLAAQLKPMTPFKRTRITGNPVVTNRIEEGERPDRAKGYDLELSMALGTYYPPPRLRQLLPMLLQGTSIFTAPKEIAEIKAQLETALKWRNYEVKLRLLLHLEELQMEHDIRHYDLESVPMTWDPVDQNPRLLTLEVPGVTESRPSVLRGDHLFALLSSETHQEDPITYKGFVHKVELDRVKLSFSMSLLSRFVDGLTFKVNFTFNRQPLRVQHRALELTGRWLLWPMLFPVAPRDVPLLPSDVKLKLYDRSLESNPEQLQAMRHIVTGTTRPAPYIIFGPPGTGKTVTLVEAIKQVVKHLPKAHILACAPSNSGADLLCQRLRVHLPSSIYRLLAPSRDIRMVPEDIKPCCNWDAKKGEYVFPAKKKLQEYRVLITTLITAGRLVSAQFPIDHFTHIFIDEAGHCMEPESLVAIAGLMEVKETGDPGGQLVLAGDPRQLGPVLRSPLTQKHGLGYSLLERLLTYNSLYKKGPDGYDPQFITKLLRNYRSHPTILDIPNQLYYEGELQACADVVDRERFCRWAGLPRQGFPIIFHGVMGKDEREGNSPSFFNPEEAATVTSYLKLLLAPSSKKGKARLSPRSVGVISPYRKQVEKIRYCITKLDRELRGLDDIKDLKVGSVEEFQGQERSVILISTVRSSQSFVQLDLDFNLGFLKNPKRFNVAVTRAKALLIIVGNPLLLGHDPDWKVFLEFCKENGGYTGCPFPAKLDLQQGQNLLQGLSKLSPSTSGPHSHDYLPQEREGEGGLSLQVEPEWRNEL
B2: FLAG-tagged DND1 wild-type (Dead End, full-length human protein 1-353) [human] / DHX30 [human (endogenous in HEK293T)] (parent)
chain 1: B1 chain 1
chain 2: MFSLDSFRKDRAQHRQRQCKLPPPRLPPMCVNPTPGGTISRASRDLLKEFPQPKNLLNSVIGRALGISHAKDKLVYVHTNGPKKKKVTLHIKWPKSVEVEGYGSKKIDAERQAAAAACQLFKGWGLLGPRNELFDAAKYRVLADRFGSPADSWWRPEPTMPPTSWRQLNPESIRPGGPGGLSRSLGREEEEDEEEELEEGTIDVTDFLSMTQQDSHAPLRDSRGSSFEMTDDDSAIRALTQFPLPKNLLAKVIQIATSSSTAKNLMQFHTVGTKTKLSTLTLLWPCPMTFVAKGRRKAEAENKAAALACKKLKSLGLVDRNNEPLTHAMYNLASLRELGETQRRPCTIQVPEPILRKIETFLNHYPVESSWIAPELRLQSDDILPLGKDSGPLSDPITGKPYVPLLEAEEVRLSQSLLELWRRRGPVWQEAPQLPVDPHRDTILNAIEQHPVVVISGDTGCGKTTRIPQLLLERYVTEGRGARCNVIITQPRRISAVSVAQRVSHELGPSLRRNVGFQVRLESKPPSRGGALLFCTVGILLRKLQSNPSLEGVSHVIVDEVHERDVNTDFLLILLKGLQRLNPALRLVLMSATGDNERFSRYFGGCPVIKVPGFMYPVKEHYLEDILAKLGKHQYLHRHRHHESEDECALDLDLVTDLVLHIDARGEPGGILCFLPGWQEIKGVQQRLQEALGMHESKYLILPVHSNIPMMDQKAIFQQPPVGVRKIVLATNIAETSITINDIVHVVDSGLHKEERYDLKTKVSCLETVWVSRANVIQRRGRAGRCQSGFAYHLFPRSRLEKMVPFQVPEILRTPLENLVLQAKIHMPEKTAVEFLSKAVDSPNIKAVDEAVILLQEIGVLDQREYLTTLGQRLAHISTDPRLAKAIVLAAIFRCLHPLLVVVSCLTRDPFSSSLQNRAEVDKVKALLSHDSGSDHLAFVRAVAGWEEVLRWQDRSSRENYLEENLLYAPSLRFIHGLIKQFSENIYEAFLVGKPSDCTLASAQCNEYSEEEELVKGVLMAGLYPNLIQVRQGKVTRQGKFKPNSVTYRTKSGNILLHKSTINREATRLRSRWLTYFMAVKSNGSVFVRDSSQVHPLAVLLLTDGDVHIRDDGRRATISLSDSDLLRLEGDSRTVRLLKELRRALGRMVERSLRSELAALPPSVQEEHGQLLALLAELLRGPCGSFDVRKTADD
B3: FLAG-tagged DND1 wild-type (Dead End, full-length human protein 1-353) [human] / MATR3 [human (endogenous in HEK293T)] (parent)
chain 1: B1 chain 1
chain 2: MSKSFQQSSLSRDSQGHGRDLSAAGIGLLAAATQSLSMPASLGRMNQGTARLASLMNLGMSSSLNQQGAHSALSSASTSSHNLQSIFNIGSRGPLPLSSQHRGDADQASNILASFGLSARDLDELSRYPEDKITPENLPQILLQLKRRRTEEGPTLSYGRDGRSATREPPYRVPRDDWEEKRHFRRDSFDDRGPSLNPVLDYDHGSRSQESGYYDRMDYEDDRLRDGERCRDDSFFGETSHNYHKFDSEYERMGRGPGPLQERSLFEKKRGAPPSSNIEDFHGLLPKGYPHLCSICDLPVHSNKEWSQHINGASHSRRCQLLLEIYPEWNPDNDTGHTMGDPFMLQQSTNPAPGILGPPPPSFHLGGPAVGPRGNLGAGNGNLQGPRHMQKGRVETSRVVHIMDFQRGKNLRYQLLQLVEPFGVISNHLILNKINEAFIEMATTEDAQAAVDYYTTTPALVFGKPVRVHLSQKYKRIKKPEGKPDQKFDQKQELGRVIHLSNLPHSGYSDSAVLKLAEPYGKIKNYILMRMKSQAFIEMETREDAMAMVDHCLKKALWFQGRCVKVDLSEKYKKLVLRIPNRGIDLLKKDKSRKRSYSPDGKESPSDKKSKTDGSQKTESSTEGKEQEEKSGEDGEKDTKDDQTEQEPNMLLESEDELLVDEEEAAALLESGSSVGDETDLANLGDVASDGKKEPSDKAVKKDGSASAAAKKKLKKVDKIEELDQENEAALENGIKNEENTEPGAESSENADDPNKDTSENADGQSDENKDDYTIPDEYRIGPYQPNVPVGIDYVIPKTGFYCKLCSLFYTNEEVAKNTHCSSLPHYQKLKKFLNKLAEERRQKKET
B4: FLAG-tagged DND1 wild-type (Dead End, full-length human protein 1-353) [human] / HNRNPC [human (endogenous in HEK293T)] (parent)
chain 1: B1 chain 1
chain 2: MASNVTNKTDPRSMNSRVFIGNLNTLVVKKSDVEAIFSKYGKIVGCSVHKGFAFVQYVNERNARAAVAGEDGRMIAGQVLDINLAAEPKVNRGKAGVKRSAAEMYGSVTEHPSPSPLLSSSFDLDYDFQRDYYDRMYSYPARVPPPPPIARAVVPSKRQRVSGNTSRRGKSGFNSKSGQRGSSKSGKLKGDDLQAIKKELTQIKQKVDSLLENLEKIEKEQSKQAVEMKNDKSEEEQSSSSVKKDETNVKMESEGGADDSAEEGDLLDDDDNEDRGDDQLELIKDDEKEAEEGEDDRDSANGEDDS

In one assay the parent is B1. The assay can be described thus: FLAG immunoprecipitation and LC/ESI-MS/MS. The following applies: with RNA helicase MOV10 [human (endogenous in HEK293T)]; HEK293T cells, three biological replicates; read off a plot.
Consider chain 1 MQSKRDCELWCERVNPENKAALEAWVRETGIRLVQVNGQRKYGGPPPGWVGSPPPAGSEVFIGRLPQDVYEHQLIPLFQRVGRLYEFRLMMTFSGLNAGFAYARYSSRRGAQAAIATLHNHPLRPSCPLLVCRSTEKCELSVDGLPPNLTRSALLLALQPLGPGLQEARLLPSPGPAPGQIALLKFSSHRAAAMAKKALVEGQSHLCGEQVAVEWLKPDLKQRLRQQLVGPFLRSPQPEGSQLALARDKLGFQGARATLQLLCQRMKLGSPVFLTKCLGIGPAGWHRFWYQVVIPGHPVPFSGLIWVVLTLDGRDGHEVAKDAVSVRLLQALSESGANLLWSAGAEAGTMVKQ [chain 1 R98A], for which the screen value is -3.2.

The next assay covers variants of B2. The assay can be described thus: FLAG immunoprecipitation and LC/ESI-MS/MS. Conditions: with DHX30 [human (endogenous in HEK293T)]; HEK293T cells, three biological replicates; read off a plot.
As to chain 1 MQSKRDCELWCERVNPENKAALEAWVRETGIRLVQVNGQRKYGGPPPGWVGSPPPAGSEVFIGRLPQDVYEHQLIPLFQRVGRLYEFRLMMTFSGLNAGFAYARYSSRRGAQAAIATLHNHPLRPSCPLLVCRSTEKCELSVDGLPPNLTRSALLLALQPLGPGLQEARLLPSPGPAPGQIALLKFSSHRAAAMAKKALVEGQSHLCGEQVAVEWLKPDLKQRLRQQLVGPFLRSPQPEGSQLALARDKLGFQGARATLQLLCQRMKLGSPVFLTKCLGIGPAGWHRFWYQVVIPGHPVPFSGLIWVVLTLDGRDGHEVAKDAVSVRLLQALSESGANLLWSAGAEAGTMVKQ [chain 1 R98A], the screen value is -2.3.

In another assay the parent is B3. The assay can be described thus: FLAG immunoprecipitation and LC/ESI-MS/MS. The following applies: with MATR3 [human (endogenous in HEK293T)]; HEK293T cells, three biological replicates; read off a plot.
Consider chain 1 MQSKRDCELWCERVNPENKAALEAWVRETGIRLVQVNGQRKYGGPPPGWVGSPPPAGSEVFIGRLPQDVYEHQLIPLFQRVGRLYEFRLMMTFSGLNAGFAYARYSSRRGAQAAIATLHNHPLRPSCPLLVCRSTEKCELSVDGLPPNLTRSALLLALQPLGPGLQEARLLPSPGPAPGQIALLKFSSHRAAAMAKKALVEGQSHLCGEQVAVEWLKPDLKQRLRQQLVGPFLRSPQPEGSQLALARDKLGFQGARATLQLLCQRMKLGSPVFLTKCLGIGPAGWHRFWYQVVIPGHPVPFSGLIWVVLTLDGRDGHEVAKDAVSVRLLQALSESGANLLWSAGAEAGTMVKQ [chain 1 R98A], for which the screen value is -0.52.

In a further assay the parent is B4. The assay can be described thus: FLAG immunoprecipitation and LC/ESI-MS/MS. The following applies: with HNRNPC [human (endogenous in HEK293T)]; HEK293T cells, three biological replicates; read off a plot.
Take chain 1 R98A: the screen value is -0.8.
